Some targets named below: IGF-1R(h) (human, UniProt P08069 959-1367, limits assumed); BTK(h) (human, UniProt Q06187 1-659); FGFR1(V561M)(h) (human, UniProt P11362 456-765, limits assumed); EphA7(h) (human, UniProt Q15375 577-998, limits assumed); cKit(D816H)(h) (human, UniProt P10721 544-976); ROCK-I(h) (human, UniProt Q13464 17-535, limits assumed).
Assay in all cases: cell-based or functional assay
For another test, the target named is T1, ULK3(h) (human, UniProt Q6PHR2 1-472, limits assumed).
T1 sequence (looked up): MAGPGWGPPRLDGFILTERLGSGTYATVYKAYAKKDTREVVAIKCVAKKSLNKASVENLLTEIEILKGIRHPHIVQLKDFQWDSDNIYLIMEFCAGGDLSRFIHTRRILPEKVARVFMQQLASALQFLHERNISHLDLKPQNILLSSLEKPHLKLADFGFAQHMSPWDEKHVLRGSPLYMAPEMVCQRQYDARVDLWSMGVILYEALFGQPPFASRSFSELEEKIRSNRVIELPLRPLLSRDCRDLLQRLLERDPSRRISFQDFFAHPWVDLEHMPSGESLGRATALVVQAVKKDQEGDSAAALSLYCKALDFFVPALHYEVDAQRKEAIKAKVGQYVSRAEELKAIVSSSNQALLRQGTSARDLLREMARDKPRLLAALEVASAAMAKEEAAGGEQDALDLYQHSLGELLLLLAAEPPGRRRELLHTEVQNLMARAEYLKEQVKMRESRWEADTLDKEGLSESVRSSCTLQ

In the next test the target is T2, Mer(h) (human, UniProt Q12866 578-872, limits assumed).
T2 sequence (looked up): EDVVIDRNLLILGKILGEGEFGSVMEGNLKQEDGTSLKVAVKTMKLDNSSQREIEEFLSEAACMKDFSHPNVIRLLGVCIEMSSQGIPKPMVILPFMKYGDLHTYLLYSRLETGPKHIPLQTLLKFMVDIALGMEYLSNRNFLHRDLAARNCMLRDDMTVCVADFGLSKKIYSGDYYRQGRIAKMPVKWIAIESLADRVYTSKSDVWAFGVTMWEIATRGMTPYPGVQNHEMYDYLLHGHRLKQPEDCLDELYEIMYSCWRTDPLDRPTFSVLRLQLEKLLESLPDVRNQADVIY

A further test concerns the target T3, EphA8(h) (human, UniProt P29322 564-1005, limits assumed).
T3 sequence (looked up): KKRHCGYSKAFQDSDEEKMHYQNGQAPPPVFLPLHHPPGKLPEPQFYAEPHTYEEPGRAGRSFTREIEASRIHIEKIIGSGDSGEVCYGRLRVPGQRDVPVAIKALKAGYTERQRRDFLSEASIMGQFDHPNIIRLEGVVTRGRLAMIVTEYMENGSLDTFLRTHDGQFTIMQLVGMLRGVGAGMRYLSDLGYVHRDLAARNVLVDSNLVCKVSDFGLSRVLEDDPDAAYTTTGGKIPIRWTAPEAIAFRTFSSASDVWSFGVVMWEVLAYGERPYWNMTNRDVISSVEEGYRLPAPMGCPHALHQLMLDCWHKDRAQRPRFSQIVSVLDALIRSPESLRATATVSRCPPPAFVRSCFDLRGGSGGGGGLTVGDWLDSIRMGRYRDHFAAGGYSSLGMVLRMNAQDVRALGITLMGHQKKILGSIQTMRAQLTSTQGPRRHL

A further test addresses T4, Fms(h) (human, UniProt P07333 538-972, limits assumed).
T4 sequence (looked up): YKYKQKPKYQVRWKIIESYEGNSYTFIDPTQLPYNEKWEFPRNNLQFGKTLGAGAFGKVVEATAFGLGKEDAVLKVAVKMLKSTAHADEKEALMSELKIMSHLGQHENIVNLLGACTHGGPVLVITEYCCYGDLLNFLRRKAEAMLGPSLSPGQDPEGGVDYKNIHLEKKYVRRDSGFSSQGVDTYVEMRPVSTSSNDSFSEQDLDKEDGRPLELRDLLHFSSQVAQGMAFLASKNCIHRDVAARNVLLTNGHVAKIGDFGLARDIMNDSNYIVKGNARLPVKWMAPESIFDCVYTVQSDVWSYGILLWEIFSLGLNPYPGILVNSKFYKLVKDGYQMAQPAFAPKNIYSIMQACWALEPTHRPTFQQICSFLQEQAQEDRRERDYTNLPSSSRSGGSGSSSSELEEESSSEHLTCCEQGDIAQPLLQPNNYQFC

The next test concerns the target T5, Flt3(D835Y)(h) (human, UniProt P36888 564-993, limits assumed).
T5 sequence (looked up): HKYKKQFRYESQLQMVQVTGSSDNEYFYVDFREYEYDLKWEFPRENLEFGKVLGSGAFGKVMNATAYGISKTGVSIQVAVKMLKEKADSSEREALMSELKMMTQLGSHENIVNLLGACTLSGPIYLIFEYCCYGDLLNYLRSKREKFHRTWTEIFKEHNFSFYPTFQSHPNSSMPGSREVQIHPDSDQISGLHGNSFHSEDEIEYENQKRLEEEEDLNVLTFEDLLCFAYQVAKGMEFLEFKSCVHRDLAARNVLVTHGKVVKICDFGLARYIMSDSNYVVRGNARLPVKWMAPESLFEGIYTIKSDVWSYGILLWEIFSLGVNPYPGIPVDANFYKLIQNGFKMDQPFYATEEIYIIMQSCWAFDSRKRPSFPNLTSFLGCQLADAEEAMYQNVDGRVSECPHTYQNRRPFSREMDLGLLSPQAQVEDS

cKit(D816H)(h), sequence (P10721 544-976 D816H): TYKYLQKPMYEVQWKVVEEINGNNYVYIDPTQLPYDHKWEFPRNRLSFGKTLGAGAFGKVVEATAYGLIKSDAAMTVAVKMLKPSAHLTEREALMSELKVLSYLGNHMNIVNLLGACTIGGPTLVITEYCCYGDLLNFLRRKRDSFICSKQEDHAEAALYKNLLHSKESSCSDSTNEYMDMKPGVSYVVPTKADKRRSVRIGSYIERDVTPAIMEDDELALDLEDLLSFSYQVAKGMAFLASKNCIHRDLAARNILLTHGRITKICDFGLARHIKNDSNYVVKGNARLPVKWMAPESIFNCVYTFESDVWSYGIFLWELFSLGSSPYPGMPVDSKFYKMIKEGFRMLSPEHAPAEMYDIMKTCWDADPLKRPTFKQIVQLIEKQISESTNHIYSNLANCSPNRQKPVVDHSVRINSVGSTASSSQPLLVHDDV
BTK(h), sequence (Q06187 whole entry): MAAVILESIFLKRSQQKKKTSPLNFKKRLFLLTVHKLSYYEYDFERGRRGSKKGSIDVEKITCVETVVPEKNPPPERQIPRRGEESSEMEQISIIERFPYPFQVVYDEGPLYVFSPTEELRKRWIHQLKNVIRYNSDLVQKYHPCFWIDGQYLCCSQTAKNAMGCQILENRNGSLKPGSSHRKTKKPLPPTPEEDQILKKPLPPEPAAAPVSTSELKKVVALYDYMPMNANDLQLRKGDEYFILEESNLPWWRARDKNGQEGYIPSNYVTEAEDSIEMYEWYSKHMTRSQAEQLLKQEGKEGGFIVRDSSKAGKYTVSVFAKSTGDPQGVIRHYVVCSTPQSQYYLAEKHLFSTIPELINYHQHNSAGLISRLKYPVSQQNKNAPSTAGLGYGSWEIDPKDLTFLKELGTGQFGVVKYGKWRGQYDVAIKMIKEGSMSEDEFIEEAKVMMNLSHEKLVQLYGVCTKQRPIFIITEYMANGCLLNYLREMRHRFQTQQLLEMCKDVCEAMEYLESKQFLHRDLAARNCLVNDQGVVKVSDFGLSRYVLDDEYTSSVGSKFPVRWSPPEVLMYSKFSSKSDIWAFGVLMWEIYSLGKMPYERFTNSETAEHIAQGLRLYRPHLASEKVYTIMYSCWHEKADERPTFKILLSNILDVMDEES
FGFR1(V561M)(h), sequence (P11362 456-765 V561M limits assumed): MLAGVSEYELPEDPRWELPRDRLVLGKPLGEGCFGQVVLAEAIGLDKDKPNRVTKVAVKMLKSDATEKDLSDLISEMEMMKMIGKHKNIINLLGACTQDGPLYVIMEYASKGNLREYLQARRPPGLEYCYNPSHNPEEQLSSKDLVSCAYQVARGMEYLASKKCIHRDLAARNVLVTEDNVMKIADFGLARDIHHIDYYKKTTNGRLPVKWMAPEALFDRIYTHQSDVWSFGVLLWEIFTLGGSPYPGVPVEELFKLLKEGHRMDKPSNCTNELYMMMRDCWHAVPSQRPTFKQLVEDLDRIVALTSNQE
EphA7(h), sequence (Q15375 577-998 limits assumed): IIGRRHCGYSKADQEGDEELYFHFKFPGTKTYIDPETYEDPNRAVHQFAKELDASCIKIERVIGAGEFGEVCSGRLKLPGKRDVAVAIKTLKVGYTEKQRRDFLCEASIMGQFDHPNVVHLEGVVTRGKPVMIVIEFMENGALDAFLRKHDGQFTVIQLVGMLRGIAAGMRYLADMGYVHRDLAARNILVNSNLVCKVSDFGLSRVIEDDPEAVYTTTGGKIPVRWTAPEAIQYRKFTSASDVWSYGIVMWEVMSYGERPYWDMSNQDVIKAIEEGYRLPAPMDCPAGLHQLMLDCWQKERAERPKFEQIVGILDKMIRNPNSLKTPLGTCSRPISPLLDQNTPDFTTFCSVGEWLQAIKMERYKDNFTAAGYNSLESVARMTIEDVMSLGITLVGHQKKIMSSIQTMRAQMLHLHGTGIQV
IGF-1R(h), sequence (P08069 959-1367 limits assumed): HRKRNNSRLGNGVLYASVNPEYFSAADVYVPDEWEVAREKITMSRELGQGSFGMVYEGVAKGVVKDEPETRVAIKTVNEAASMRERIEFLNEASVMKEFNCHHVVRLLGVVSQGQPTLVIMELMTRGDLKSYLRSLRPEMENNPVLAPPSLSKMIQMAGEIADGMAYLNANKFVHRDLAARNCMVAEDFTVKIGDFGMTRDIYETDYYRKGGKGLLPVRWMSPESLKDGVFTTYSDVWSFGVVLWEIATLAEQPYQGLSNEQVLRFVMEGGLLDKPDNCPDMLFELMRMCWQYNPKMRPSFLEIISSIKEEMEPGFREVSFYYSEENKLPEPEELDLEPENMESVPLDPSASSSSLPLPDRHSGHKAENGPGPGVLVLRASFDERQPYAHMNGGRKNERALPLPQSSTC
ROCK-I(h), sequence (Q13464 17-535 limits assumed): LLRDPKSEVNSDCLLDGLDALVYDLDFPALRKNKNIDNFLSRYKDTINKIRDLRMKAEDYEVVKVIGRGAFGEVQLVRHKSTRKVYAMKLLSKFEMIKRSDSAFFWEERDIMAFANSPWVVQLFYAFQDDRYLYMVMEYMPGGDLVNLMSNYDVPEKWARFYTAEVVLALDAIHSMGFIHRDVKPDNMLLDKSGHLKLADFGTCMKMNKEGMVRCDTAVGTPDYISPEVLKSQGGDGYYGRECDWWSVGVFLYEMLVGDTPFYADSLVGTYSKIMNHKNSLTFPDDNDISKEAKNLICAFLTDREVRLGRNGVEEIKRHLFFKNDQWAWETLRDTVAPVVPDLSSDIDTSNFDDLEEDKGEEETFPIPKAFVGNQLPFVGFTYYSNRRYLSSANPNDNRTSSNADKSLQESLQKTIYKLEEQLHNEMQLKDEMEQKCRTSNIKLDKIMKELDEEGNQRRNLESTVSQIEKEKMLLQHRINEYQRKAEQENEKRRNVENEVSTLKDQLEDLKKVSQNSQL

B1: MMI-0300 (peptide)
peptide: FAKLAARLYRKALARQLGVAA
On to B1, for which the “% activity, 100 µM” value in the test with IGF-1R(h) was determined as 119%; with BTK(h), 102%; with FGFR1(V561M)(h), 74%; with EphA7(h), 159%; with ULK3(h), 167%; with cKit(D816H)(h) it was 126%. Besides, the “% activity, 100 µM” value worked out at 79% in the test with ROCK-I(h); 52% with Mer(h); 93% in the test with EphA8(h); 45% in the test with Fms(h); 80% with Flt3(D835Y)(h).

B2: MMI-0400 (peptide)
peptide: KAFAKLAARLYRKALARQLGVAA
As to B2, the “% activity, 100 µM” value came to 90% with IGF-1R(h); 94% in the test with BTK(h); 74% with FGFR1(V561M)(h); 222% with EphA7(h); 147% with ULK3(h); 143% in the test with cKit(D816H)(h). Further, the “% activity, 100 µM” value with ROCK-I(h) turned out to be 73%; with Mer(h) it was 50%; with EphA8(h) it was 146%; in the test with Fms(h) it was 37%; in the test with Flt3(D835Y)(h) it was 71%.

(Values after patent publication US20140072613A1 (published 2014).)
